Experimental findings from patent US8008452B2, “Phosphorylated Ndr kinase” (Novartis Forschungesstiftung, Zweigniederlassung Friedrich …, priority 2002, dated 2011) are described below.

In data set [1] the test system is GST-NDR1. The data set is described as follows: Immunodetection of GST-NDR1 phosphorylated on Ser281 or Thr444 after in vitro autophosphorylation. The format is biochemical, human. The settings on record: in vitro autophosphorylation with or without Ca2+/S100B. The procedure:
Either 1 microgram GST-NDR1 or HA-NDR1 immunoprecipitated from 100 microgram COS-1 detergent extracts as described above was separated on 10% SDS-PAGE and immunoblotted 2 h at RT or overnight at 4° C. with anti-Ser281P antisera (1:1000) in the presence of 50 microg/ml competing unphosphopeptide or anti-Thr444P purified antibody (1:500). Both antibodies were detected with horseradish peroxidase-conjugated donkey anti-rabbit Ig antibody (Amersham biosciences) and developed by ECL (chemiluminescence; Amersham Pharmacia Biotech).
To reliably quantify the effect of S100B on NDR1 phosphorylation status, rabbit polyclonal antibodies were raised against phosphoepitopes comprising Ser281 or Thr444. GST-NDR1 mutants were treated essentially as described in Example 2 and detected either with anti-NDR1_C-term antiserum or polyclonal antibodies recognising NDR1 phosphorylated on Ser281 or Thr444.

For data set [2], the system named is GST-NDR1. The data set is described as follows: GST-NDR1 kinase assay (peptide kinase assay). In kind it is biochemical, human. The procedure:
1 microgram of purified recombinant GST-NDR1 wild type and mutants (without further treatment or autophosphorylated for 2 h in the presence or absence of 1 mM CaCl2 and […] (Sigma)) were assayed in 20 microliter of reaction mixture containing 20 mM Tris-HCl pH 7.5, 10 mM MgCl2, 1 mM DTT, 100 microM [gamma-^32P]ATP (˜0.5 microCi/microliter), and 1 mM NDR1 substrate peptide ([…]; SEQ ID NO:22). After 30 mins incubation at 30° C., reactions were stopped with 50 mM EDTA, and 10 microliters of reaction mixture were spotted onto 2 cm^2 squares of P81 phosphocellulose paper (Whatman). These were subsequently washed for 4×5 min and 3×20 min in 1% phosphoric acid and once in acetone before counting in a liquid scintillation counter. One unit of NDR1 activity was defined as the amount which catalyses the phosphorylation of 1 nmol peptide substrate in 1 min.
Specific activity of GST-NDR1 mutants was also measured by a peptide kinase assay as described above. For this purpose, 1 microgram of purified GST-NDR1 wild type and alanine mutants were left without further treatment or autophosphorylated for 2 h in the presence or absence of 1 mM CaCl2 and […].

A further data set has as its system HA-NDR1. As to the kind of experiment: HA-NDR1 kinase assay on 12CA5 immunoprecipitates from transfected, treated COS-1 cells. In kind it is cell-based, human. Conditions: COS-1 cells. The procedure:
In some experiments, the cells were treated for 60 min with 1 microM okadaic acid in 0.1% N,N-dimethylformamide (DMF) (Alexis Corp.), 50 microM BAPTA-AM (1,2-bis (o-aminophenoxy) ethane-N,N,N′,N′-tetraacetic acid tetra (acetoxy-methyl)ester) in 0.1% diimethylsulfoxide (DMSO; Sigma), or 20 microM thapsigargin in 0.1% DMSO (Alomone) 24 hours after transfection.
Transfected and treated COS-1 cells were washed once with ice-cold PBS, and harvested by rubber policeman in 1 ml ice-cold PBS containing 1 mM Na3VO4 and 20 mM beta-glycerophosphate before lysis in 500 microliters of IP buffer (20 mM Tris-HCl pH 8.0, 150 mM NaCl, 1% Nonidet P-40, 10% glycerol, 1 mM Na3VO4, 20 mM beta-glycerolphosphate, 1 microM microcystin-LR, 50 mM NaF, 0.5 mM PMSF, 4 microM leupeptin, 1 mM benzamidine, and 1 tablet/10 ml IP of Complete protease inhibitors (Roche)). Lysates were centrifuged at 20 000 g for 20 min and triplicate aliquots (200 microg) of supernatant were precleared with protein A-Sepharose (Amersham Pharmacia Biotech) for 60 min and mixed subsequently for 3 h at 4° C. with 12CA5 antibody prebound to protein A-Sepharose (˜1 microg antibody bound to 2 microl beads). The beads were then washed twice with IP buffer, once for 10 min with IP buffer containing 1 M NaCl, once again for 10 min with IP buffer, and finally twice with 20 mM Tris-HCl pH 7.5 containing 4 microM leupeptin and 1 mM benzamidine. […] After 60 min incubation at 30° C., 15 microliters of supernatant were removed, and phosphate incorporation into the substrate peptide determined as described for GST-NDR1 above. […]
To test whether hMOB1 plays a role in NDR activation, myc-hMOB1 or the empty vector was cotransfected with HA-NDR1 in COS1 cells and treated with OA. […] The reactions were resolved on a 10% SDS PAGE and the radioactivity visualised by using a phosphoimager.

B1: S281A: NDR1 alanine mutant of phosphorylation residue Ser281; GST fusion or HA-tagged (protein)
chain: MAMTGSTPCSSMSNHTKERVTMTKVTLENFYSNLIAQHEEREMRQKKLEKVMEEEGLKDEEKRLRRSAHARKETEFLRLKRTRLGLEDFESLKVIGRGAFGEVRLVQKKDTGHVYAMKILRKADMLEKEQVGHIRAERDILVEADSLWVVKMFYSFQDKLNLYLIMEFLPGGDMMTLLMKKDTLTEEETQFYIAETVLAIDSIHQLGFIHRDIKPDNLLLDSKGHVKLSDFGLCTGLKKAHRTEFYRNLNHSLPSDFTFQNMNSKRKAETWKRNRRQLAFATVGTPDYIAPEVFMQTGYNKLCDWWSLGVIMYEMLIGYPPFCSETPQETYKKVMNWKETLTFPPEVPISEKAKDLILRFCCEWEHRIGAPGVEEIKSNSFFEGVDWEHIRERPAAISIEIKSIDDTSNFDEFPESDILKPTVATSNHPETDYKNKDWVFINYTYKRFEGLTARGAIPSYMKAAK
modifications: left off: small tags and cut ends
notes: NDR1 alanine mutant of phosphorylation residue Ser281; GST fusion or HA-tagged
In the case of B1, the “phosphorylation of GST-NDR1 on Ser281 and Thr444 (phosphospecific antibodies)” value in the data set on GST-NDR1 [1] is recorded as “entirely abolishes the autophosphorylation on Thr444”. The “Specific activity of GST-NDR1 variants, −S100B” value in the data set with GST-NDR1 [2] (autophosphorylated 2 h in the absence of CaCl2 and S100B) amounted to 0.514. The “Specific activity of GST-NDR1 variants, +S100B” value in the data set on GST-NDR1 [2] (autophosphorylated 2 h in the presence of 1 mM CaCl2 and 10 mM bovine S100B) was 0.952. The “kinase activity of GST-NDR1 mutant (in words)” value in the data set with GST-NDR1 [2] (compared with wild type) is recorded as “almost undetectable”. In the data set on GST-NDR1 [2] (left without further treatment), the “Specific activity of GST-NDR1 variants, CTRL” value is listed as 0.16. Besides, in the data set with HA-NDR1 (1 microM okadaic acid 1 h), the “kinase activity of HA-NDR1 variants, +OA” value was 0.1113. For the same molecule, the “kinase activity of HA-NDR1 variants, −OA” value in the data set on HA-NDR1 (solvent alone 1 h) was found to be 0.0357.
